Assay results published in patent US20150344580A1 (MSM PROTEIN TECHNOLOGIES, published 2015).

T1: human CCR6 (human, UniProt P51684 1-374)
T1 construct: whole, on cells; CHO cells; also called CCR6 (human)
T1 sequence (looked up): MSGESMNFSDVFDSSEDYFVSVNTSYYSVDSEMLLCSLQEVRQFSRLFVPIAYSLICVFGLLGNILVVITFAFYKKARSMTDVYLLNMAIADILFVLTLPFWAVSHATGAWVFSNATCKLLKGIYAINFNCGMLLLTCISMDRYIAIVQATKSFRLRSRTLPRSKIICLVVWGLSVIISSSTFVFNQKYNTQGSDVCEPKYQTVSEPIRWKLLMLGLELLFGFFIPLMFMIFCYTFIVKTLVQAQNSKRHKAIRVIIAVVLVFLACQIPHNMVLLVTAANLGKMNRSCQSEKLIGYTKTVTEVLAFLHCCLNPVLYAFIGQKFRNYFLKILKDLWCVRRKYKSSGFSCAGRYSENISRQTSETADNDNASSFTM

T2: human CXCR1 (human, UniProt P25024 1-350)
T2 construct: whole, on cells; R1610 cells
T2 sequence (looked up): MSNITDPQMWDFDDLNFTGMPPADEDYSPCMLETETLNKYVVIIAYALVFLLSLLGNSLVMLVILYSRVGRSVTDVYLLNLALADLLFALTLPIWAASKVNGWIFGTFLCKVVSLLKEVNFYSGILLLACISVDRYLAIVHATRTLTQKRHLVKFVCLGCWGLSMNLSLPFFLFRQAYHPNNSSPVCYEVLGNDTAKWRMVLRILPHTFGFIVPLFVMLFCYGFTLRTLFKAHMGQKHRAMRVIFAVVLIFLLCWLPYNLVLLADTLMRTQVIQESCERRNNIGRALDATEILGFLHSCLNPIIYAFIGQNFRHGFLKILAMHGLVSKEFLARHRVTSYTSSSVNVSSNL

T3: human CXCR5 (human, UniProt P32302 1-372)
T3 construct: whole, on cells; CHO cells
T3 sequence (looked up): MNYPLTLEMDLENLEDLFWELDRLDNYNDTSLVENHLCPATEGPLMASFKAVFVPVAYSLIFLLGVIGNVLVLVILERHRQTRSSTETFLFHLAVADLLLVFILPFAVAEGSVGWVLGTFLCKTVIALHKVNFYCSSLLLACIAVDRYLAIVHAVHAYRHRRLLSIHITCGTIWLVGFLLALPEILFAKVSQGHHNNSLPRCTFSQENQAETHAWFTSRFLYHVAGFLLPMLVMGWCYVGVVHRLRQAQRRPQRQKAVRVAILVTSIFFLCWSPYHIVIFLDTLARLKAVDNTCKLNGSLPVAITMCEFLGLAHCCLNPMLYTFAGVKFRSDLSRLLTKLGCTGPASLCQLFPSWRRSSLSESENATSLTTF

T4: human CCR4 (human, UniProt P51679 1-360)
T4 construct: whole, on cells; CHO cells
T4 sequence (looked up): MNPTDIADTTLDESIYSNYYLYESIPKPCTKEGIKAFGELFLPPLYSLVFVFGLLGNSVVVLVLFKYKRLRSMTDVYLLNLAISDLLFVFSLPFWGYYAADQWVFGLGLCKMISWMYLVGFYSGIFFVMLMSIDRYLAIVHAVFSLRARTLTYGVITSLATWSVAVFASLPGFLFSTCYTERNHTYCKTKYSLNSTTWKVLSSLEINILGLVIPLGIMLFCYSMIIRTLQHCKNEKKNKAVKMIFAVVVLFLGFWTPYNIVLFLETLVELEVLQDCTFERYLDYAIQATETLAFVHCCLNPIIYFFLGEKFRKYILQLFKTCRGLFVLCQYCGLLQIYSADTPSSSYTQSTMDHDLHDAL

T5: mouse CCR6 (mouse, UniProt O54689 1-367)
T5 construct: whole, on cells; CHO cells; also called CCR6 (mouse)
T5 sequence (looked up): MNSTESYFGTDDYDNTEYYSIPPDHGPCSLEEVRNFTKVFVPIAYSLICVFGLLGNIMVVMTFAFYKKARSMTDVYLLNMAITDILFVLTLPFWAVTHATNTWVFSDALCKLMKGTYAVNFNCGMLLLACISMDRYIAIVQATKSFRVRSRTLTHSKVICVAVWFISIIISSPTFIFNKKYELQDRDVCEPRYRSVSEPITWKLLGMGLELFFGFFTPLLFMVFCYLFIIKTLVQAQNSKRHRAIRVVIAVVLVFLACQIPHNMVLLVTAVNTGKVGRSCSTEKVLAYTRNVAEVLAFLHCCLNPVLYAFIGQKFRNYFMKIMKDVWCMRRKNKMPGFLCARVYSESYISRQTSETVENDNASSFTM


Columns and labels:
human CCR6 = target: T1, human CCR6; assay: FACS, CHO-human CCR6 cells
Procedure: (§1) In more details, the cell staining procedure was: 5000-1000 cell suspension in 10 μl FACS buffer (1×PBS, 2.0% FBS, 0.2% sodium azide) was mixed with 10 μl of 200 nM the corresponding anti-CCR7 MAB and incubated on ice for 30 min. Washing step—after the incubation 150 μl of FACS buffer was added to the cell sample, the samples were mixed gently by up-down pipetting the cell suspension. Then the samples were centrifuged at 1100 rpm for 5 minutes, and supernatants were removed. Washing step was repeated ones. Then 10 μl of anti-human PE-(Fab)2 form Jackson Immuno Research Lab. #709-116-098 diluted 40 times in FACS buffer were added to the cells and the cells were re-suspended by up-down pipetting. After 20 min. incubation on ice in dark the washing step was repeated twice. The washed cells were mixed with 100 μl of FIX buffer (0.5% Paraformaldehyde solution in PBS). Fixed samples were stored in dark on ice and analyzed by FACS on Guava PCA-96 flow cytometer. The fluorescent signals collected from individual cells were obtained using fluorescence Activated Cell Sorter (FACS).

human CXCR1 = target: T2, human CXCR1; assay: FACS, R1610-human CXCR1 cells
Procedure: as §1

human CXCR5 = target: T3, human CXCR5; assay: FACS, CHO-human CXCR5 cells
human CCR4 = target: T4, human CCR4; assay: FACS, CHO-human CCR4 cells
Procedure: as §1, with “Washing” for “In more details, the cell staining procedure was: 5000-1000 cell suspension in 10 μl FACS buffer (1×PBS, 2.0% FBS, 0.2% sodium azide) was mixed with 10 μl of 200 nM the corresponding anti-CCR7 MAB and incubated on ice for 30 min. Washing”, “cytometer.” for “cytometer. The fluorescent signals collected from individual cells were obtained using fluorescence Activated Cell Sorter (FACS).”
In more details, the cell staining procedure was: […] cell suspension in 10 μl FACS buffer (1×PBS, 2.0% FBS, 0.2% sodium azide) was mixed with 10 μl of 200 nM the corresponding anti-CCR7 MAB and incubated on ice for 30 min. Washing step—after the incubation 150 μl of FACS buffer was added to the cell sample, the samples were mixed gently by up-down pipetting the cell suspension. […] Fixed samples were stored in dark on ice and analyzed by FACS on Guava PCA-96 flow cytometer. The fluorescent signals collected from individual cells were obtained using fluorescence Activated Cell Sorter (FACS).

mouse CCR6 = target: T5, mouse CCR6; assay: FACS, CHO-mouse CCR6 cells
Procedure: as §1

| Binder | binding result (human CCR6) | binding result (human CXCR1) | binding result (human CXCR5) | binding result (human CCR4) | binding result (mouse CCR6) |
| --- | --- | --- | --- | --- | --- |
| MSM-R710 (fully human anti-human CCR7 antibody, IgG1) (antibody, V domains shown, IgG1 format) VH: EVQLLESGGGLVQPGGSLRLSCAASGFTFSNYTMHWVRQAPGKGLEWVSGIGPRSGRTYYADSVKGRFTISRDNSKNTLYLQMNSLRAEDTAVYYCARSYAYQYRGFDYWGQGTLVTVSS VL: EIVLTQSPGTLSLSPGERATLSCRASQSVSSSYLAWYQQKPGQAPRLLIYGASSRATGIPDRFSGSGSGTDFTLTISRLEPEDFAVYYCQSSVTFGQGTKVEIKR | no binding (tested: 200 nM MAB mixed 1:1 with cells) | no binding (tested: 200 nM MAB mixed 1:1 with cells) | no binding (tested: 200 nM MAB mixed 1:1 with cells) | no binding (tested: 200 nM MAB mixed 1:1 with cells) | no binding (tested: 200 nM MAB mixed 1:1 with cells) |
| MSM-R735 (fully human anti-human CCR7 antibody, IgG1) (antibody, IgG1 format; also called R735 Human IgG1) heavy: not shown light: EIVLTQSPGTLSLSPGERATLSCRASQSVSSSYLAWYQQKPGQAPRLLIYGASSRATGIPDRFSGSGSGTDFTLTISRLEPEDFAVYYCQQGSPVTFGQGTKVEIKRTVAAPSVFIFPPSDEQLKSGTASVVCLLNNFYPREAKVQWKVDNALQSGNSQESVTEQDSKDSTYSLSSTLTLSKADYEKHKVYACEVTHQGLSSPVTKSFNRGEC | no binding (tested: 200 nM MAB mixed 1:1 with cells) | no binding (tested: 200 nM MAB mixed 1:1 with cells) | no binding (tested: 200 nM MAB mixed 1:1 with cells) | no binding (tested: 200 nM MAB mixed 1:1 with cells) | no binding (tested: 200 nM MAB mixed 1:1 with cells) |
